The values that follow come from paper doi:10.1101/521658v1.

Substrate in data set [1]: Nc1ncnc2c1ncn2[C@@H]1O[C@H](COP(=O)(O)OP(=O)(O)OP(=O)(O)O)[C@@H](O)[C@H]1O
As to the kind of experiment: purified protein, by the assay type. To be noted: pH 7.8.

Substrate in data set [2]: NC(=O)c1ccc[n+]([C@@H]2O[C@H](COP(=O)(O)OP(=O)(O)OC[C@H]3O[C@@H](n4cnc5c(N)ncnc54)[C@H](O)[C@@H]3O)[C@@H](O)[C@H]2O)c1
As to the kind of experiment: purified protein, by the assay type. The conditions noted are these: pH 7.8.

As usually defined, the kcat is the maximal rate divided by the concentration of active sites. As usually defined, the kcat/Km is the turnover number divided by the Michaelis constant.

B1: 6HIS-Δ38NADKc-1 (with AtCaM1/Ca^2+) (Arabidopsis thaliana) (protein)
chain: AGELLLRRRKLDQGASMGYKDVKIAPLIERKDSGRRSNLERFSHYVARQLGFEDPNEYPQLCKLANGYLLKTKGYDENVDEYLENEAERDSLYVHLLEEFDRCILTYFSFNWTQSSNLISQALSDESDQKVPKLKDFVMAATRKQRFERVTKDLKVKRVISTLVEEMRVIGSGSSEPHCTEVMSPVAHNKRSPVLLLMGGGMGAGKSTVLKDIFLESFWSEAQADAVVIEADAFKETDVIYRALSSRGHHDDMLQTAELVHQSSTDAASSLLVTALNDGRDVIMDGTLSWEPFVEQMIEMARNVHKQKYRMGEGYKVSEEGTITEKYWEEEEEETKENGKQQNLKPYRIELVGVVCDAYLAVARGIRRALMVKRAVRVKPQLNSHKRFANAFPKYCELVDNARLYCTNAVGGPPRLIAWKDGNSKLLVDPEDIDCLKRVSSLNPDAESIYELYPDPSQLSKPGSVWNDVVLVPSRPKVQKELSDAIRRIEKAQPKN
Turning to B1, in data set [1], the Km is on record as 203(±30) uM, the kcat amounted to 41 ± 2 s⁻¹ and the kcat/Km turned out to be 200000 M⁻¹ s⁻¹. In addition, in data set [2], the Km was 147 (±17) uM, the catalytic constant (kcat) was 42 ± 2 s⁻¹ and the kcat/Km is 280000 M⁻¹ s⁻¹.
